In series [1] the target is Wnt3A (conditioned medium from L/Wnt3A cells, ATCC CRL-2647) (UniProt P27467). The series can be described thus: cell-based or functional assay. The arrangement: unit not given beside the values.
A short description of series [2]: Esterase activity of Notum proteins on chromogenic substrates. It is filed as biochemical. To be noted: 1 hour at 37° C. As to the method: Briefly, PNPA or PNPB were dissolved/diluted in isopropanol to final concentrations of 10 mM. These substrate solutions were diluted 1:10 into assay buffer (0.1% gum arabic, 2.3 mg/mL sodium dexoycholate, 1×PBS) and incubated with defined amounts of hNotum enzyme, and the enzymatic release of the chromophore p-nitrophenol monitored by absorbance measurements at 405 nm.

Series [3] relates to Wnt3A-mediated induction of luciferase in the 293.TCF cells. Put plainly: Wnt3A canonical signaling assay, bioactivity of Notum constructs. It counts as cell-based, human. An excerpt:
To generate a stable population of cells that contain a reporter for the activation of canonical Wnt signaling, HEK 293T cells were transduced with a lentiviral vector, pGreenFirel-TCF (System Biosciences) which encodes a bifunctional GFP and luciferase reporter cassette under the control of a minimal CMV reporter linked to four tandem repeats of the transcriptional response elements for TCF. Transduced cells populations, termed 293.TCF cells, were subsequently used in a Wnt3A canonical signaling assay as follows: 2.5×10^4 293.TCF cells were plated per well of a 96-well tissue culture plate in 50 μL of serum-free DME medium. After 24 hours of serum starvation, 25 μL of various dilutions of conditioned medium (CM) from L/Wnt3A cells (ATCC CRL-2647; Willert, 2003) or undiluted CM from parental L-cells (ATCC CRL-2648) along with 25 μL of DMEM+0.2% FBS were added to each well. Eighteen hours after addition of CM, 100 μL of One-Glo solution (ProMega Corp.) was added to each well. The contents of each well were then mixed thoroughly to lyse the cells, 100 μL of lysate transferred to black 96-well plates, and the luminescence in each well read after 5 mins using a Wallac Victor3 Multilabel Counter (Perkin-Elmer Corp). […] More particularly, as the Wnt3A+ CM media is diluted from 25% down to approximately 3%, activation of the Wnt pathway is reduced with a corresponding decrease in luminescence.
Once the luciferase reporter system was established, assays for determining the bioactivity of various Notum modulators were performed as follows. 2.5×10^4 293.TCF cells were plated per well of a 96-well tissue culture plate in 50 μL of serum-free medium. After 23 hours of serum starvation, 25 μL of DMEM+0.2% FBS containing various Notum modulators at various concentrations (e.g., hNotum-His, hNotum-hFc, hNotum-S232A-His, murine Notum-His, murine Notum-hFc, macaque Notum-hFc, control protein-His or control protein-hFc obtained as per Examples 7, 8 and 13 above), were added to the cells. After 1 hour, 25 μL of Wnt3A or control L-cell CM were added to each well. Eighteen hours after addition of CM, 100 μL of One-Glo solution (ProMega Corp.) was added to each well, the contents of each well mixed thoroughly to lyse the cells, 100 μL of lysate transferred to black 96-well plates, and the luminescence read after 5 minutes.

Series [4] in a line: 4-MUH fluorescent hydrolase assay, activity of Notum constructs. It is filed as biochemical. As to the method:
In addition to the assays described in Examples 23 and 24, a fluorescent esterase substrate, 4-methylumbelliferyl heptanoate (Sigma), can be used to measure the activity of hydrolases using standard assay conditions (Richardson and Smith, 2007, PMID: 17620441; Jacks and Kircher, 1967, PMID: 5582971). Briefly, 4-MUH was dissolved in DMSO to a final concentration of 1.2 mM. This substrate was diluted 1:10 into assay buffer (0.1M Tris, pH 7.5, 50 mM NaCl, 0.05% Brij) and incubated with defined amounts of Notum enzyme or point-mutated Notum enzymes, and enzymatic release of the fluorescent molecule 4-methylumbelliferone monitored (355 nm excitation, 460 nm emission) using a Wallac Victor3 Multilabel Counter (Perkin Elmer).

Here are results for 7 molecules from patent US20130224191A1, “NOTUM PROTEIN MODULATORS AND METHODS OF USE” (priority 2010, published 2013).

Read-outs that look alike come from different tables or passages of the source.

Chain of Wnt3A (conditioned medium from L/Wnt3A cells, ATCC CRL-2647) (P27467 19-352 limits assumed): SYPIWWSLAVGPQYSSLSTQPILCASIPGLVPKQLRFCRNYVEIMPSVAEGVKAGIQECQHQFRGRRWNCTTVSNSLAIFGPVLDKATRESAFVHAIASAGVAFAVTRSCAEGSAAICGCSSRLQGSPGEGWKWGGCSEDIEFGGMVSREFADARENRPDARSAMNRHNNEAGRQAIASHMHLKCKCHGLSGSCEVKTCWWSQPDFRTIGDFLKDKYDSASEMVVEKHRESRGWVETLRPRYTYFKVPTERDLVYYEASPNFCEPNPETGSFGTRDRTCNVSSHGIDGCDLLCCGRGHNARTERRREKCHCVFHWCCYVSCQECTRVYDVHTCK

The molecule “hNotum-Fc (human Notum fused to human IgG2 Fc) (Fc fusion)” showed an IC50 of the decrease in luciferase activity (293.TCF Wnt3A assay) in series [1] of 0.47.

B1: macaque Notum: recombinant macaque Notum protein, construct not stated (protein)
chain: SEGRKTWRRRGQQPPPPPRTEAAPAAGQPVESFPLDFTAVEGNMDSFMAQVKSLAQSLYPCSAQQLNEDLRLHLLLNTSVTCNDGSPAGYYLKESRGSRRWLLFLEGGWYCFNRENCDSRYNTMRRLMSSRDWPRTRTGTGILSSQPEENPYWWNANMVFIPYCSSDVWSGASSKSEKNEYAFMGALIIQEVVRELLGRGLSGAKVLLLAGSSAGGTGVLLNVDRVAEQLEELGYPAIQVRGLADSGWFLDNKQYRHTDCVDTITCAPTEAIRRGIRYWNGVVPERCRRQFQEGEEWNCFFGYKIYPTLRCPVFVVQWLFDEAQLTVDNVHLTGQPVQESQRLYIQNLGRELRHTLKDVPASFAPACLSHEIIIRSHWTDVQVKGTSLPRALHCWDRSLHDSHKNSKTPLKGCPVHLVDSCPWPHCNPSCPTVRDQFTGQEMNVAQFLMHMGFDVQTVAQQQGPEPSKLLGL
modifications: left off: a dimerising Fc or GST
With B1, in series [2], the esterase activity entry was “display esterase activity”.

B2: human-NOTUM S232A mutant: human Notum with S232A point mutation of the putative catalytic nucleophile (His and hFc) (protein, UniProt Q6P988 20-496, looked up, variant S232A)
Palmitoleoyl-protein …: SEGRKTWRRRGQQPPPPPRTEAAPAAGQPVESFPLDFTAVEGNMDSFMAQVKSLAQSLYPCSAQQLNEDLRLHLLLNTSVTCNDGSPAGYYLKESRGSRRWLLFLEGGWYCFNRENCDSRYDTMRRLMSSRDWPRTRTGTGILSSQPEENPYWWNANMVFIPYCSSDVWSGASSKSEKNEYAFMGALIIQEVVRELLGRGLSGAKVLLLAGSAAGGTGVLLNVDRVAEQLEKLGYPAIQVRGLADSGWFLDNKQYRHTDCVDTITCAPTEAIRRGIRYWNGVVPERCRRQFQEGEEWNCFFGYKVYPTLRCPVFVVQWLFDEAQLTVDNVHLTGQPVQEGLRLYIQNLGRELRHTLKDVPASFAPACLSHEIIIRSHWTDVQVKGTSLPRALHCWDRSLHDSHKASKTPLKGCPVHLVDSCPWPHCNPSCPTVRDQFTGQEMNVAQFLMHMGFDMQTVAQPQGLEPSELLGMLSNGS
modifications: His tag or human Fc
For the molecule B2, the figures for the “antagonism of Wnt3A-mediated induction of luciferase” value (from here on “antagonism”) in series [3] and in series [3] (listed as S232A) were “did not antagonize” and “no ability to antagonize”, respectively. For the same molecule, the esterase activity result in series [2] was “greatly reduced esterase activity”. Moreover, in series [4], the “hydrolysis of the 4-MUH substrate” value was “no ability to hydrolyze the 4-MUH substrate”.

B3: D141N: human Notum point mutated at D141 to the macaque residue (protein)
chain: SEGRKTWRRRGQQPPPPPRTEAAPAAGQPVESFPLDFTAVEGNMDSFMAQVKSLAQSLYPCSAQQLNEDLRLHLLLNTSVTCNDGSPAGYYLKESRGSRRWLLFLEGGWYCFNRENCDSRYNTMRRLMSSRDWPRTRTGTGILSSQPEENPYWWNANMVFIPYCSSDVWSGASSKSEKNEYAFMGALIIQEVVRELLGRGLSGAKVLLLAGSSAGGTGVLLNVDRVAEQLEKLGYPAIQVRGLADSGWFLDNKQYRHTDCVDTITCAPTEAIRRGIRYWNGVVPERCRRQFQEGEEWNCFFGYKVYPTLRCPVFVVQWLFDEAQLTVDNVHLTGQPVQEGLRLYIQNLGRELRHTLKDVPASFAPACLSHEIIIRSHWTDVQVKGTSLPRALHCWDRSLHDSHKASKTPLKGCPVHLVDSCPWPHCNPSCPTVRDQFTGQEMNVAQFLMHMGFDMQTVAQPQGLEPSELLGMLSNGS
Consider B3, for which the “antagonism” value in series [3] is listed as “retained bioactivity”. In addition, the “hydrolysis of the 4-MUH substrate” value in series [4] is listed as “retained bioactivity”.

B4: D340A: human Notum with D340A point mutation of the catalytic acidic residue (protein, UniProt Q6P988 20-496, looked up, variant D340A)
Palmitoleoyl-protein …: SEGRKTWRRRGQQPPPPPRTEAAPAAGQPVESFPLDFTAVEGNMDSFMAQVKSLAQSLYPCSAQQLNEDLRLHLLLNTSVTCNDGSPAGYYLKESRGSRRWLLFLEGGWYCFNRENCDSRYDTMRRLMSSRDWPRTRTGTGILSSQPEENPYWWNANMVFIPYCSSDVWSGASSKSEKNEYAFMGALIIQEVVRELLGRGLSGAKVLLLAGSSAGGTGVLLNVDRVAEQLEKLGYPAIQVRGLADSGWFLDNKQYRHTDCVDTITCAPTEAIRRGIRYWNGVVPERCRRQFQEGEEWNCFFGYKVYPTLRCPVFVVQWLFAEAQLTVDNVHLTGQPVQEGLRLYIQNLGRELRHTLKDVPASFAPACLSHEIIIRSHWTDVQVKGTSLPRALHCWDRSLHDSHKASKTPLKGCPVHLVDSCPWPHCNPSCPTVRDQFTGQEMNVAQFLMHMGFDMQTVAQPQGLEPSELLGMLSNGS
As to B4, the “antagonism” value in series [3] is “no ability to antagonize”. In addition, the “hydrolysis of the 4-MUH substrate” value in series [4] is “no ability to hydrolyze the 4-MUH substrate”.

B5: D141S: human Notum point mutated at D141 to the murine residue (protein)
chain: SEGRKTWRRRGQQPPPPPRTEAAPAAGQPVESFPLDFTAVEGNMDSFMAQVKSLAQSLYPCSAQQLNEDLRLHLLLNTSVTCNDGSPAGYYLKESRGSRRWLLFLEGGWYCFNRENCDSRYSTMRRLMSSRDWPRTRTGTGILSSQPEENPYWWNANMVFIPYCSSDVWSGASSKSEKNEYAFMGALIIQEVVRELLGRGLSGAKVLLLAGSSAGGTGVLLNVDRVAEQLEKLGYPAIQVRGLADSGWFLDNKQYRHTDCVDTITCAPTEAIRRGIRYWNGVVPERCRRQFQEGEEWNCFFGYKVYPTLRCPVFVVQWLFDEAQLTVDNVHLTGQPVQEGLRLYIQNLGRELRHTLKDVPASFAPACLSHEIIIRSHWTDVQVKGTSLPRALHCWDRSLHDSHKASKTPLKGCPVHLVDSCPWPHCNPSCPTVRDQFTGQEMNVAQFLMHMGFDMQTVAQPQGLEPSELLGMLSNGS
In the case of B5, the “antagonism” value in series [3] is listed as “retained bioactivity”. The “hydrolysis of the 4-MUH substrate” value in series [4] is “retained bioactivity”.

B6: murine Notum: recombinant murine Notum protein, construct not stated (protein)
chain: SEGRKTWRRRGQQPPQPPPPPPLPQRAEVEPGAGQPVESFPLDFTAVEGNMDSFMAQVKSLAQSLYPCSAQQLNEDLRLHLLLNTSVTCNDGSPAGYYLKESKGSRRWLLFLEGGWYCFNRENCDSRYSTMRRLMSSKDWPHTRTGTGILSSQPEENPHWWNANMVFIPYCSSDVWSGASPKSDKNEYAFMGSLIIQEVVRELLGKGLSGAKVLLLAGSSAGGTGVLLNVDRVAELLEELGYPSIQVRGLADSGWFLDNKQYRRSDCIDTINCAPTDAIRRGIRYWSGMVPERCQRQFKEGEEWNCFFGYKVYPTLRCPVFVVQWLFDEAQLTVDNVHLTGQPVQEGQWLYIQNLGRELRGTLKDVQASFAPACLSHEIIIRSYWTDVQVKGTSLPRALHCWDRSFHDSHKASKTPMKGCPFHLVDSCPWPHCNPSCPTIRDQFTGQEMNVAQFLMHMGFDVQTVAQQQGMEPSKLLGMLSNGN
Consider B6, for which the esterase activity result in series [2] is given as “display esterase activity”.
